Reference: US11110171B2, “PD-1 related cancer therapy” (New York University, priority 2017, dated 2021)

Molecular target: T1, SHP2PTP (the catalytic domain of SHP2) (Homo sapiens, UniProt Q06124)
T1 construct: purchased Abcam 42578 (SHP2 catalytic domain); 101112 (SAP)
T1 sequence (Q06124 247-517 limits assumed): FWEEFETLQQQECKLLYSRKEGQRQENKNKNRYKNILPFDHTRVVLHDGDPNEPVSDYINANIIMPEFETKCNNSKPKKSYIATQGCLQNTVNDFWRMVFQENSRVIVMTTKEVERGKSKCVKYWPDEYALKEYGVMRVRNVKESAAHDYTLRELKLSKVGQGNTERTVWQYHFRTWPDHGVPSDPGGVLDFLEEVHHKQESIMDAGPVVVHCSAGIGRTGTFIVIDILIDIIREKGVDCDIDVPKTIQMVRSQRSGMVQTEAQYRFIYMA
Assay: Co-affinity enrichment of His-tagged SAP and GST-tagged SHP2PTP
Format: binding
Details: recombinant proteins in the absence of T cell lysate
Description: FIG. 3. SAP is indirectly associated with PD-1. (ai) Pervanadate treated Jurkat T cells were transiently transfected with GFP-tagged PD-1 or GFP alone; Whole cell lysates (WCL) were immunoprecipitated with an anti-GFP antibody (IP: GFP), and samples were analyzed by immunoblotting. (aii) Densitometry values of data shown in ai. (b) Jurkat T cells were transfected with plasmids directing expression of the indicated fluorescent proteins and after 24 hours cells were stimulated with anti-CD3 antibodies and recombinant PDL2, followed by live-imaging. Bar, 10 μm. […] (di) Jurkat T cells were transfected with different versions of GFP-tagged PD-1, as indicated, followed by treatment with pervanadate; Whole-cell lysates (Input) were immunoprecipitated with an anti-GFP antibody (IP: GFP), and samples were analyzed by immunoblotting. […] (ei) 293T cells were transfected with plasmid directing expression of GFP-SAP or a control GFP plasmid, followed by treatment with pervanadate; Lysates were pulled-down with the GST-tagged PD-1 and samples were analyzed by immunoblotting. […] (gi) SHP2 KD and scrambled control Jurkat T cells were transfected with GFP-tagged PD-1, followed by treatment with pervanadate; Lysates were immunoprecipitated with an anti-GFP antibody (IP: GFP), and samples were analyzed by immunoblotting. […] Samples were analyzed by immunoblot. […]

direct interaction of SAP with SHP2 catalytic domain: lack of direct interaction
B1: SAP: Recombinant human SAP (His tagged), signaling lymphocytic activation molecule-associated protein, purchased from Abcam (protein, UniProt O60880 1-128, looked up)
SH2 domain-containing protein …: MDAVAVYHGKISRETGEKLLLATGLDGSYLLRDSESVPGVYCLCVLYHGYIYTYRVSQTETGSWSAETAPGVHKRYFRKIKNLISAFQKPDQGIVIPLQYPVEKKSSARSTQGTTGIREDPDVCLKAP
modifications: His tag
